Results as given in article PMC2688388.

Target: mCeruleanC-α1C,77 (human Cav1.2 calcium channel α1C,77 subunit labeled at the C-tail with mCerulean) (human)
Experiment: FRET or BRET; two-color FRET (mCerulean/tagRFP) epifluorescence microscopy in COS1 cells, control for cascade transfer: Rβ3 and α1CC without Vα1C

mCeruleanC-α1C,77 (human Cav1.2 calcium channel α1C,77 subunit labeled at the C-tail with mCerulean) (human), sequence (Q13936 whole entry): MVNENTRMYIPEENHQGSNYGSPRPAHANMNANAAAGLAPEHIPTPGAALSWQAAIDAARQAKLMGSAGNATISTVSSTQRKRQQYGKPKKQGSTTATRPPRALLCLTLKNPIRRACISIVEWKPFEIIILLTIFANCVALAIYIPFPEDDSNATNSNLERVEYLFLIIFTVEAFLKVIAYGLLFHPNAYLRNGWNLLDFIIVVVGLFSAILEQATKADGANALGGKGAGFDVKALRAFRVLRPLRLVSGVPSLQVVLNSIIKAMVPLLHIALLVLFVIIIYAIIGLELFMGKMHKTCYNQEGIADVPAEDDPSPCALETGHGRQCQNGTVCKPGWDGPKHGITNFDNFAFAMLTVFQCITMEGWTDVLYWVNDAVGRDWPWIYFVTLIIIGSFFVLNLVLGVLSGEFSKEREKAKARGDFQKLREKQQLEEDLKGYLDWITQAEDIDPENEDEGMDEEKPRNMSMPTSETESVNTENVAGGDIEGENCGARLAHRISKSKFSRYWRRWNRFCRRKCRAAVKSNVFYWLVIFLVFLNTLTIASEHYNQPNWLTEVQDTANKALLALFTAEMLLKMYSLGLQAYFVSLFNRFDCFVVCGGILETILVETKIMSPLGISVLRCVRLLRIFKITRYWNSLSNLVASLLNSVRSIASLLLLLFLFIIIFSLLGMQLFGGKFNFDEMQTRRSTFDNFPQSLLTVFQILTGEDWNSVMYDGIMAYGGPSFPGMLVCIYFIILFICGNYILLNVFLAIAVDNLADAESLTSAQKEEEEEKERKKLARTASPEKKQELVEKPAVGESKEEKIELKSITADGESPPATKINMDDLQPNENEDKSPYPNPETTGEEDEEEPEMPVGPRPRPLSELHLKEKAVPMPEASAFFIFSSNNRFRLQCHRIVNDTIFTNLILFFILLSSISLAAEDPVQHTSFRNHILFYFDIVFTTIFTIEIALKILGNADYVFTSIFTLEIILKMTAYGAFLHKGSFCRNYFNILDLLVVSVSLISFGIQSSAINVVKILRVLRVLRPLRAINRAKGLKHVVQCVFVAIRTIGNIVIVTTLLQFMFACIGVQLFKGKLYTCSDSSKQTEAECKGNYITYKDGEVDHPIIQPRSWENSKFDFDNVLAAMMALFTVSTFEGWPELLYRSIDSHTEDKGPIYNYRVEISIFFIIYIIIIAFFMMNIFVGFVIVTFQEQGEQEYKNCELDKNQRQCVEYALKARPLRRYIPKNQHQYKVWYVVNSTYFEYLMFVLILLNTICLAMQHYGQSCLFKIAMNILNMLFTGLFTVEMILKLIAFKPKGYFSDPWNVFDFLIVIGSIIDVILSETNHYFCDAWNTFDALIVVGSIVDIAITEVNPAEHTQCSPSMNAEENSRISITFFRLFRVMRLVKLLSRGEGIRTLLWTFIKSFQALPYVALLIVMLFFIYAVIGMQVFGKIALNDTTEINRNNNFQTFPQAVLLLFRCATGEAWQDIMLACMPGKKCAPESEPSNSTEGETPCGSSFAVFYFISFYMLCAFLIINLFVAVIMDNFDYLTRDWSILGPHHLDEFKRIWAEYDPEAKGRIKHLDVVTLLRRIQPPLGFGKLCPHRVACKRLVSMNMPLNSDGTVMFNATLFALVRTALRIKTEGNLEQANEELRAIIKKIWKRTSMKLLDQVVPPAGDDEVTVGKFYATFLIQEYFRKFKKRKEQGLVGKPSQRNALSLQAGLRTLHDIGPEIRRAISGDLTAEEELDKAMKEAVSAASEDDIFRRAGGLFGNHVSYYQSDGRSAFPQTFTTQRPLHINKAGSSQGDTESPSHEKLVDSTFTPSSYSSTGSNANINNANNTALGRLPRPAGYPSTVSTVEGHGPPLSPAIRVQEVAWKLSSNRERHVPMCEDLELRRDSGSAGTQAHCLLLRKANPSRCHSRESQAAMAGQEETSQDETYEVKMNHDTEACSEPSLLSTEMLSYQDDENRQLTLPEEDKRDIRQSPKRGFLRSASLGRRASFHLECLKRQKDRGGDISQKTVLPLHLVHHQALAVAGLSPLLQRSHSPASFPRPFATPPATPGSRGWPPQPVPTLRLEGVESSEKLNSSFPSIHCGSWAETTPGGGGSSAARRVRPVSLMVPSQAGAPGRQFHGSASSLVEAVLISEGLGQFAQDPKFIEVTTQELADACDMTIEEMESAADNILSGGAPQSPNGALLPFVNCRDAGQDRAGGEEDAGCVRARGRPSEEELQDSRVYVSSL

RFP-β3 (human Cavβ3 subunit with tagRFP fused to the N-terminus) (from UniProt P54284 1-484) (natural protein)
FRET efficiency: 0.05
